{"source": "patent US20210095027A1", "about": "(Xencor, published 2021)", "biological_target": "T1, human CD20 (human, UniProt P11836 1-297)", "T1 sequence (looked up)": "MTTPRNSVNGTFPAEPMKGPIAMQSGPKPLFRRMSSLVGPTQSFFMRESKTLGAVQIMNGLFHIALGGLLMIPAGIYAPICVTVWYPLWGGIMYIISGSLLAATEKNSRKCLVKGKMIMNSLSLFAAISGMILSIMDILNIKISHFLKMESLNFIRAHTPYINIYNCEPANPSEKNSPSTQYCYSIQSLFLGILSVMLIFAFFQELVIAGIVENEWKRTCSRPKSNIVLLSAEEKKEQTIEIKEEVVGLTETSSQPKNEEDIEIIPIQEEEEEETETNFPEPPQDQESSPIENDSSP", "assay": "cell-based or functional assay"}
{"binder": "XENP13676 (bispecific antibody) chain 1: QVQLVQSGAEVKKPGASVKVSCKASGYTFTSYNMHWVRQAPGQGLEWMGAIYPGNGDTSYNQKFQGRVTITADKSISTAYMELSSLRSEDTAVYYCARSTYYGGDWYFNVWGAGTLVTVSSASTKGPSVFPLAPSSKSTSGGTAALGCLVKDYFPEPVTVSWNSGALTSGVHTFPAVLQSSGLYSLSSVVTVPSSSLGTQTYICNVNHKPSDTKVDKKVEPKSCDKTHTCPPCPAPPVAGPSVFLFPPKPKDTLMISRTPEVTCVVVDVKHEDPEVKFNWYVDGVEVHNAKTKPREEEYNSTYRVVSVLTVLHQDWLNGKEYKCKVSNKALPAPIEKTISKAKGQPREPQVYTLPPSREEMTKNQVSLTCDVSGFYPSDIAVEWESDGQPENNYKTTPPVLDSDGSFFLYSKLTVDKSRWEQGDVFSCSVMHEALHNHYTQKSLSLSPGK chain 2: not shown light: QIVLTQSPSSLSASVGDRVTITCRASSSVSYIHWFQQKPGKSPKPLIYATSNLASGVPVRFSGSGSGTDYTLTISSLQPEDFATYYCQQWTSNPPTFGGGTKVEIKRTVAAPSVFIFPPSDEQLKSGTASVVCLLNNFYPREAKVQWKVDNALQSGNSQESVTEQDSKDSTYSLSSTLTLSKADYEKHKVYACEVTHQGLSSPVTKSFNRGEC", "values": [{"measurement": "EC50 of Jeko-1 target cell killing (RTCC) in the absence of rituximab", "result": 0.024, "unit": "µg/mL"}, {"measurement": "EC50 of Jeko-1 target cell killing (RTCC) in the presence of 3 µg/ml rituximab", "result": 0.051, "unit": "µg/mL"}, {"measurement": "EC50 of Jeko-1 target cell killing (RTCC) in the presence of 10 µg/ml rituximab", "result": 0.093, "unit": "µg/mL"}, {"measurement": "EC50 of Jeko-1 target cell killing (RTCC) in the presence of 30 µg/ml rituximab", "result": 0.162, "unit": "µg/mL"}, {"measurement": "EC50 of Jeko-1 target cell killing (RTCC) in the presence of 100 µg/ml rituximab", "result": 0.387, "unit": "µg/mL"}, {"measurement": "EC50 of RTCC against Ramos cells with purified T cells from six healthy donors", "result": "0.0053 to 0.0143", "unit": "µg/mL"}]}
